Assay: protease stability score; higher = more stable; yeast display proteolysis, trypsin and chymotrypsin;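 further: relative to predicted unfolded state with 0 unfolded-like and 1 meaning tenfold more protease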

Sequence	protease stability score
DTSFTILEEVIKLFIEASETGDERVIQHLFDPNVRFRVDGKDFHGMDWLLEHFSHLRLHDIQITHVHIYNGRVEVTGHVRGNFDGQEKVHNTHILLRKIDGKWRIEHISMK	1.41
DTTEKHQKDMARAQIHSLETGDFKELMELLDPNVRFEFEVGDKRIERHGRELMVHFILKEYEEIRIRIDSWRVVNGVVKIELRLHVGDKESRIEIYLLIINGQAKSVHFDVR	1.09
DTVTEMDRHIFEHLLHLWKTGDWKRMTELFDPHARSVFNGRELHGRKSMQEAIEIIVRRADHIELHIRSLDVVDGQIDLDGELILIVGDKKIVHETHIHIHVYNGQVTELSFQIV	0.585
DVEEEYRHVMEEVHKHAMKTGDEQDILHLMDPNARFEVDGKIYIGREWLRRFVDILGVSRIHLHDLKIKDYRIIGNKIEVDGNIDGIVGNKRHEIDSHVISEKIDGRWIIKREKHR	0.324
DVEQEISKTLVHLWVFALLTGDEHLIRKLADPHVRLDIDGVTIVGMDLVAKRITELRIERFTIEDVKFEIQGDKLISIMDTKVDGRIGDKRIETRVIILLIFEKIDGRWQLSTSSEEKR	1.16
DYHEEIMRKVHEFFLAMVTTGDEEMIEKLFDPHVRIDINGRDHHGRDVAVKIWEELWREIRFKHVHLHDMKSFNGVLHLHVREKVDVNGRDLIIETHFVIRKFDGQWHLHSLKIN	1.38
EDDERELKLMLELLLHSQHTGDFKEAERLADPNARFEFNGREFHGREQFHSFIWKLGVDHSEVKRVRLQGEFLTLHIKHNVNGKEIDMIWYNVKVNGKWLIHHLEVR	1.21
EDEEQHTEELAHIFTEDYFTGDESSLERYLDPHVRLRIEYGDWEFSVHGRERAVDKIHWTMKQMGVKHVYLRHIRVQGDKVELNLELRVGDKVREQRIEIKVVNGRIKLVNIVIH	2.15
EDEERETEEAIRLFIKNEITGDWKRLLHYLDPNVRVRIGDKEIHGMERWKDEFKQEIDRVKGLRYELDDERRHLVDGKIEIILDFTIHVGEKRHRFQLVLILVKVNGRWIMHSIHVNYL	1.54
EDEKEFIERFARILLHARFTGDWKTLLELMDPNARITIEIGDKILEFHGMEQWIRENDKTEKKIKNITIHIEDMRIVNGVLEVDIHVHIGDKKYDFRIIVVVINGKVRQLEIKVE	2.08
EEAEQESKNFSEVVHRSLETGDEDNLMNNADPHVRSRIHVGDKRITSHGREVMELILERFKHARVVPTDIEVINGVAIIHMTMEYGDKELRIHLIFFKIDGKWILTHIIIRVD	0.056
EEDDEILEKAIRLHEHMLRTGDPREFWELADPHYKLNIGDKHIHGRETLLRHTLHKIEEYGFKHSRFVPKDWELQGDKIHLRGELILHFNGREHRYDYHIEAIKVNGQWVLHRIDIQ	1.23
EEDDKFSELAFNMLVESFKTGDEQHWRELADPRVKYQIDGRDLIGWTAFRRFLNEFGIDHMHIKLHDHRDYNGQVELDETLEIRYGDKTEHIKVTTIVHKINGQWIVKSFSVH	0.682
EEDDRDLEDLLTKLDSAIQTGNWEILHHLIDPHARSHYNGRDFHGWRDLEFLLRIIVEEIRLDTVDMKHHEFYGDKMRLETTLTGEVNGQKTEFTTVLIYLKIDGKWVIHNFEVR	0.729
EEDEEHIRKVIETFREMSETGDEDWSERMADPNARLIVGNKEFHGRERFNEWNRELTERIDHFEVRIRDFEIQGDKLILHVRITIIINGKDIETESHIIMKKVDGRWFMHSLHHK	0.752
EEDEEITKLYLEIILHIWLTGNEEELLRMFDPNARVDINGVINIGREDLLKRFHEHWRKYGAKHIRVRDIKFHIFNGVIYINLHLELIVGDKTFHVHLHMRSRKVDGRWHTHEFEERIN	1.69
EEDEEVAYHFMEEWFHYVHTGNEEMLERMLDPDVKLTFDGKEFHGRETVLRAIIEWRIEHVRIKDFRFKVINGRAEIRLDGERRGQIDGVKRETRIIIEINVHKVDGKWKIERVELHTL	2.1
EEDEEYLRKHYTDLKHALETGDEDRIMELFDPHVRIDDEDHNLHGREELFRWLHDLGIDHHELRIDDFKIDGDKVSIDGHLRVIVNGRDIHFRTIIRIKKVNGQWRLTHLEIR	1.94

Sequence	protease stability score
EEDEHFAESYAEIMIHSWITGNEDLFEHLADPNWRLRVGDKEFHGREEATEFLIEFYERIDHFEIHIHDMKNIGEKLFIDGELNIHVNGRTIRHHTEIVIYTINGKVKSEEVRIK	1.95
EEDEKTAEEMMHIWIKYLMTGNEERLYKLVDPNARIEFNGRTDHGRESFTKFLRELGIKHSHIEEIRWDVQGEKVILTLHGRLDVNGVDRSNEILIIAEKVNGRWRVESVHLHLR	1.27
EEDFRLVDKFIKDFWKSFRTGDEDLFKKYLDPHVQLEVNGQEIHGREQLSRVLVELIIEFGVDHVEFRLHDWHIYDGQAEHHTHVRLKYGDKNVRRTLHIFMLKVDGRWILESMVIR	1.26
EEDHEIVEKMLKMLFHSWHTGDEKLFKTLVDPNAKFVIGDKTFHGREFYKFLHDRFDHFRMHDITVRKVEHFDGRLIAHVEIHWRLHIGDKTETEVTESHIIIEKIDGKWRNRSIIVH	1.76
EEDHSEVERRLEIILHKWETGDERILHHYLDPHAKFIINGREYHGRENALEHWVKSEEDLGVKHERLREYDFRYQGDKVELHTEIELHVGNKVFDIHIIIIARKVNGRWVIEEVRLEFR	1.23
EEDKDWAEWAMRLFVELLFTGDEERLNHFLDPHVRVEFNGRDLHGREMLEKLLELMGIDHIQFKHIELRVIDGQVHLHIDGFADIDGRTHRIRIHMHFEKINGKWRFHSVKFEHK	1.39
EEDKEDAKKAAEISSHSWETGDEDHLTKLFDPNVRITIGDKELHGMSLLHTFLREWGISNVDFRLHHIDVQGEKLKVDGILNVNGRHTKVTLHYEKINGKWVIKEIIII	1.26
EEDKETAEHFSRVLHENWETGDEHRELLYMDPNVRTDFNGVDAVGREEFHKLVHHLLTHIRMRSLHIRKVHIQGEYLHIEGELNTEVNGREVVLEMRITSLKINGRWITHSMHFR	0.304
EEDLEHILELSEYFIRAWSTGDWDTIHKYADPHVRSDINGVESHGMEEMIRVYEEIRVTIEHVHYDHVTVQGEKLIVDGRMDYRVDINGKKKEHRTRVEIHVDVVNGRIKSFVINYR	1.23
EEDQEIFEQAMRELINSNLTGNEHRMQELADPHVRLIVGDKTYIGRESIWRFLFEWRIDHIEIRSYDIQGDKVHVDIEVHMRYGDKSTVSRMELRAEKVNGRWHIHFIRIH	1.75
EEDQKMLEMVFRIILDLWITGDFDLIERLLDPDVRLDSKIGDKTVHHHGREEVAKHLFHIRIEDFIIHRVHVQGDKITINGELDGHFNGKRFNSEIHIHYVVINGRIRRLSFEEN	2.2
EEDREHAREILRQLHHWFMTGDEEKWSKLMDPDARHHIHVGDKHSEYHGREEVIRFLRELIRHWRIDEVRIRRLHSIDGRVHSDIIVDGQVDGRHDRRDYELRVSVVDGRLKEVTIIVH	1.07
EEDREWVERIIRHYREAELTGDEDRMKELVDPNTRFHIDGVVYHGMDEWTRYVRELRMRSRTRVHQVRVIDGRIEADFEYEIHIEINGVQIDRRQEVILIFKKVNGKWIVERVIVV	1.93
EEDRKHAEHVFELLMEVLLTGDWKMSRHLFDPNARIEIDGVESHGWEFIYRLLRFIWEHLGIKVRDMKIRRFDVINGVAHFDGELRLHVDGVEIVLEIRLNIFVINGRLKEVHLKRT	1.42
EEDRNDVEDFLRMFRTALTTGDEHILEHLADPNTRVDINGKEWHGWHHVSELHKKHLEDLGADHVEFRVHDFRIIGNKVHVDSRLIEHQGDKILIINTIIIQLKINGRWVIHELRFR	0.988
EEDRRMVEDAIRIFLKSLRTGDEESLTRMVDPHVKYHQGEYHMHGREELVRYFAERWEELGVENINTDMRPTHIEFQGEKIIIMGRYHLHVNGRESHTRIEFIATKIDGQWRLHKIRFE	1.53
EEDSEMAREISESILRMIKTGDERHFMRLLDPHVKIDINGREHHGRHAATHQLRETSEKFGFDRITVRLESVHVQGEYVNINGRVEQGDFHLTLHFHFRKIDGRWVMDSVHIV	0.559
EEEAAHQFNKWLSLMKHGNEHKASEMLDKDAHIKVGDKTLQGREDVQRDVRRRKEELKFSMTIVDYKDHGDKARLTVEQTNDHNGRPRTRRANVTVHVSNGRVKEIVINDDS	-0.16
